Results as given in patent US12582683B2, “Prostate neoantigens and their uses” (Jansen Biotech, Inc., priority 2019, dated 2026).

What was measured:
CD8+ and CD4+ T cells = assay: Endogenous autologous normal donor restimulation assay (Ad5-transduced dendritic cells plus autologous Pan-T cells); format: cell-based, human; conditions: Table 27, restimulation with overlapping 15-mer peptide pools, highest frequency across sixteen normal donors
Procedure: (5% CO2). The following day, DC cells were counted and plated in a 96 well round bottom microplate at a concentration of 30,000 viable cells per well. […] (5% CO2). […] Autologous CD3+ Pan-T cells isolated from human normal PBMCs were thawed using media.
Plates were incubated at 37° C. […] (5% CO2).
The cells were washed with PBS and stained with Live/Dead Fixable Aqua Dead Cell stain (Thermo-Fisher).

[1] = system: CD8+ T cells in PBMCs from patients with metastatic castrate-resistant prostate cancer; assay: Patient PBMC restimulation assay (in vitro immunogenicity of neoantigens); format: cell-based, human; set-up: Maximum frequency of TNFα+IFNγ+CD8+ T cells: unit not given here; conditions: for Maximum fold change over: fold change over negative control, highest across the PBMC donors evaluated, 9 mer peptide; for Maximum frequency of TNFα+IFNγ+CD8+ T cells: greatest frequency among all tested PBMC donors, negative control 0.011-0.8
Procedure: In Vitro Immunogenicity Assessment of Neoantigens (“Patient PBMC Restimulation Assay”)
PBMCs from human patients with metastatic castrate-resistant prostate cancer were thawed using media (RPMI 1640 supplemented with Glutamax, 10% HI FBS, and 1× Sodium Pyruvate). Cells were counted and plated in a 96 well round bottom microplate at a concentration of 250,000 viable cells per well. Lyophilized peptides were solubilized in 100% DMSO and diluted in media to 10 μg/mL. Neoantigen peptides were added in equal volume to PBMCs for a final concentration of 5 μg/mL. CEF Peptide Pool “Plus” (Cellular Technologies, Ltd.) was utilized as a positive control and DMSO at the same final concentration as the experimental peptides was utilized as a negative control. Human IL-15 (Peprotech) was added to all wells at final concentration of 10 ng/mL.
Plates were incubated at 37° C. (5% CO2) for a total of 13 days. Media was refreshed every 2 days with IL-15 (10 ng/mL final concentration) and IL-2 (R&D systems, 10 IU/mL final concentration). On day 12, PBMCs were re-stimulated with identical experimental peptides or controls, at same concentration as peptide stimulation on Day 1. After 1-hour incubation, protein Inhibitor Cocktail (eBioscience) was added to every well and plate was incubated overnight.
On day 13, cells were stained for intracellular flow cytometry analysis. The cells were washed with PBS and stained with Live/Dead Fixable Aqua Dead Cell stain (Thermo-Fisher). Following the live/dead stain, cells were blocked using Biotin-Free Fe Receptor Blocker (Accurate Chemical & Scientific Corp). Extracellular cellular flow panel (1 μL/antibody per well in 50 μL) consisted of CD3 PerCP-Cy5.5 (Biolegend), CD4 BV421 (Biolegend), and CD8 APC-Cy7 (Biolegend). After extracellular staining, cells were fixed using Foxp3/Transcription Factor Staining Buffer Set (eBioscience) and stained for intracellular proteins (1:50 dilution) using TNFα FITC (R&D Systems) and IFNγ BV785 (Biolegend). Cells were washed and resuspended in stain buffer and analyzed using a BD Celesta flow cytometer.
Flow cytometry cell staining analysis was completed using FlowJo v10. Cells were gated on live, singlet, CD3+ cells. The CD8+ T cells were analyzed for TNFα/IFNγ expression and the frequency of double positive TNFα/IFNγ CD8+ T cells was recorded. Responses were assessed to be positive when the frequency of double positive TNFα/IFNγ CD8+ T cells due to stimulation with an experimental peptide was increased greater than or equal to 2-fold over the DMSO only negative control for that patient. Peptides were analyzed in 1 to 7 patient samples.
The 9 mer fragments shown in Table 13 were assessed for their ability to activate T cells using the Patient PBMC restimulation assay described in Example 1 using TNFα and IFNγ production by CD8^+ T cells as a readout. Self-antigens shown in Table 15 were also used in the assays. […] PBMCs from ten patients were evaluated.

HLA-A*01:01 = HLA-A*01:01 (Homo sapiens, UniProt P04439, A114D/A174V/A182V/D101N/D185E/E176A/E190D/L180R/Q94H/R68K/S129P/T187R/V100A/V91M/W191G); assay: In vitro binding of neoantigens to class I MHC (UV peptide exchange, HLA class I ELISA); conditions: 100% = same binding affinity as positive control peptide
Procedure: (§1) In Vitro Binding of Neoantigens to Class I MHC
(§2) The 9 mer peptides identified by bioinformatics analysis were analyzed for their binding propensities to 6 common HLA class I alleles (HLA-A*01:01, A*02:01, A*03:01, A*24:02, B*07:02, B*08:01). The principle of the method is briefly described below and consists of two parts, one involving exchange of peptide with a positive control induced by Ultraviolet (UV) radiation, and the second is an enzyme immunoassay to detect stable HLA-peptide and empty HLA complexes.
(§3) HLA-bound peptides are critical for the stability of the HLA complex.
(§4) The exchange efficiency between the peptide of interest and Pos was analyzed using an HLA class I ELISA. The combined technologies allowed the identification of ligands for an HLA molecule of interest which are potentially immunogenic.
(§5) The UV control represented UV-irradiation of conditional HLA class I complex in the absence of a rescue peptide. […] To this end streptavidin was bound onto polystyrene microtiter wells. After washing and blocking, HLA complex present in exchange reaction mixtures or ELISA controls was captured by the streptavidin on the microtiter plate via its biotinylated heavy chain. Non-bound material was removed by washing. Subsequently, horseradish peroxidase (HRP)-conjugated antibody to human B2M was added. […] In the latter case B2M was removed during the washing step. After removal of non-bound HRP conjugate by washing, a substrate solution was added to the wells. A coloured product formed in proportion to the amount of intact HLA complex present in the samples. After the reaction was terminated by the addition of a stop solution, absorbance was measured in a microtiter plate reader. […] Suboptimal HLA binding of peptides with a moderate to low affinity for HLA class I molecules can also be detected by this ELISA technique (Rodenko, B et al. (2006) Nature Protocols 1: 1120-32).
(§6) Binding of select neoepitopes to HLA-A*01:01, HLA-A* 02:01, HLA-A* 03:01, HLA-A*24:02, HLA-1B*07:02 and HLA-1B*08:01 was evaluated using the assay described in Example 1. […] As a criterion for further evaluation, peptides with an exchange rate of at least 10% with the corresponding Pos peptide for at least one of the 6 HLA alleles that we considered for further evaluation. […] Higher percentages correspond to stronger binding to the HLA allele.

HLA-A*03:01 = HLA-A*03:01 (Homo sapiens, UniProt P04439); assay: as above; conditions: 100% = same binding affinity as positive control peptide
Procedure: as §1, §2, §3, §4, §5, §6

HLA-A*24:02 = HLA-A*24:02 (Homo sapiens, UniProt P04439, D101N/D140Y/D185E/E176V/E190D/F33S/G103R/G107R/I119L/I121M/I306V/K335N/L105A/L180Q/L300P/N151K/N90K/Q86E/Q94H/R106L/R138H/R89G/T104I/T345S/V100E/W191G/Y123F); assay: as above; conditions: 100% = same binding affinity as positive control peptide
Procedure: as §1, §2, §3, §4, §5, §6

HLA-B*07:02 = HLA-B*07:02 (Homo sapiens, UniProt P01889); assay: as above; conditions: 100% = same binding affinity as positive control peptide
Procedure: as §1, §2, §3, §4, §5, §6

HLA-A*02:01 = HLA-A*02:01 (Homo sapiens, UniProt P04439, D140Y/D185E/D98H/E176V/E277Q/G131W/G231S/I119V/I121R/I166T/I218V/L300P/L318F/N151K/N90K/P208A/P217A/Q86G/Q94H/R138H/R169H/T345S); assay: as above; conditions: 100% = same binding affinity as positive control peptide
Procedure: as §1, §2, §3, §4, §5, §6

DGHSYTSKVNCLLLQDGFHGCVSITGAAGRRNLSIFLFLMLCKLEFHAC (listed as Homo sapiens) [AS55, splice variant SPOCK1]
Maximum Frequency of TNFα/IFNγ Double Positive CD4+30 T cells (CD8+ and CD4+ T cells): 0.063

WKFEMSYTVGGPPPHVHARPRHWKTDR (listed as Homo sapiens) [AS18, splice variant NWD1]
Maximum Frequency of TNFα/IFNγ Double Positive CD4+30 T cells (CD8+ and CD4+ T cells): 0.046

YEAGMTLGEKFRVGNCKHLKMTRP (listed as Homo sapiens) [Neoantigen P82, AR-V7]
Maximum fold change over [1]: 3.46
Maximum frequency of TNFα+IFNγ+CD8+ T cells [1]: 0.970
Exchange rate with Pos peptide, HLA-A*01:01 (HLA-A*01:01): 1.5%
Exchange rate with Pos peptide, HLA-A*03:01 (HLA-A*03:01): 58.1%
Exchange rate with Pos peptide, HLA-A*24:02 (HLA-A*24:02): −0.1%
Exchange rate with Pos peptide, HLA-B*07:02 (HLA-B*07:02): 12.9%
Exchange rate with Pos peptide, HLA-A*02:01 (HLA-A*02:01): 6.3%

YEAGMTLGGKILFFLFLLLPLSPFSLIF (listed as Homo sapiens) [Neoantigen P87, AR-Intron]
Maximum fold change over [1]: 3.24
Maximum frequency of TNFα+IFNγ+CD8+ T cells [1]: 0.120
Exchange rate with Pos peptide, HLA-A*01:01 (HLA-A*01:01): 1.1%
Exchange rate with Pos peptide, HLA-A*03:01 (HLA-A*03:01): 2.4%
Exchange rate with Pos peptide, HLA-A*24:02 (HLA-A*24:02): 0.2%
Exchange rate with Pos peptide, HLA-B*07:02 (HLA-B*07:02): 5%
Exchange rate with Pos peptide, HLA-A*02:01 (HLA-A*02:01): 64%
Maximum Frequency of TNFα/IFNγ Double Positive CD4+30 T cells (CD8+ and CD4+ T cells): 0.079

B1: WTPIPVLTRWPLPHPPPWRRATSCRMARSSPSATSGSSVRRRCSSLPSWVWNLAASTRPRSTPS (peptide, listed as Homo sapiens)
chain: WTPIPVLTRWPLPHPPPWRRATSCRMARSSPSATSGSSVRRRCSSLPSWVWNLAASTRPRSTPS
notes: TMEM222-LOC644961
Maximum fold change over [1]: 5.00
Maximum frequency of TNFα+IFNγ+CD8+ T cells [1]: 0.480
Exchange rate with Pos peptide, HLA-A*01:01 (HLA-A*01:01): 5.2%
Exchange rate with Pos peptide, HLA-A*03:01 (HLA-A*03:01): 4.1%
Exchange rate with Pos peptide, HLA-A*24:02 (HLA-A*24:02): 0.1%
Exchange rate with Pos peptide, HLA-B*07:02 (HLA-B*07:02): 91.3%
Exchange rate with Pos peptide, HLA-A*02:01 (HLA-A*02:01): 8.2%

B2: VFFKRAAEGFFRMNKLKESSDTNPKPYCMAAPMGLTENNRNRKKSYRETNLKAVSWPLNHT [P76] (peptide, listed as Homo sapiens)
chain: VFFKRAAEGFFRMNKLKESSDTNPKPYCMAAPMGLTENNRNRKKSYRETNLKAVSWPLNHT
notes: AR-V3
Maximum fold change over [1]: 2.30
Maximum frequency of TNFα+IFNγ+CD8+ T cells [1]: 0.170
Immunogenic ([1]; patient PBMC restimulation, CD8+ T cells): Yes
Exchange rate with Pos peptide, HLA-A*01:01 (HLA-A*01:01): 0.1%
Exchange rate with Pos peptide, HLA-A*03:01 (HLA-A*03:01): 6%
Exchange rate with Pos peptide, HLA-A*24:02 (HLA-A*24:02): −0.5%
Exchange rate with Pos peptide, HLA-B*07:02 (HLA-B*07:02): 91.5%
Exchange rate with Pos peptide, HLA-A*02:01 (HLA-A*02:01): 85.9%
